Test results published in publication PMC10707181, “Neuronal Scaffold Protein ARMS Interacts with Synaptotagmin-4 C2AB through the Ankyrin Repeat Domain with an Unexpected Mode” (International Journal of Molecular Sciences, 2023).

B1: ARMS ankyrin repeats 1–11 (R1-11, residues 1–365) [rat] / Syt4 132–425 [human] (parent complex)
chain 1: MSVLISQSVINYVEEENIPALKALLEKCKDVDERNECGQTPLMLAAEQGNVEIVKELLKNGANCNLEDLDNWTALISASKEGHIHIVEELLKSGASLEHRDMGGWTALMWACYKGRTDVVELLLSHGANPSVTGLYSVYPIIWAAGRGHADIVHLLLQNGAKVNCSDKYGTTPLVWAARKGHLECVKHLLAMGADVDQEGANSMTALIVAVKGGYTQSVKEILKRNPNVNLTDKDGNTALMIASKEGHIEIVQDLLDAGTYVNIPDRSGDTVLIGAVRGGHVEIVRALLQKYADIDIRGQDNKTALYWAVEKGNATMVRDILQCNPDTEICTKDGETPLIKATKMRNIEVVELLLDKGAKVSAVD
chain 2: ESVSPESLKSSTSLTSEEKQEKLGTLFFSLEYNFERKAFVVNIKEARGLPAMDEQSMTSDPYIKMTILPEKKHKVKTRVLRKTLDPAFDETFTFYGIPYTQIQELALHFTILSFDRFSRDDIIGEVLIPLSGIELSEGKMLMNREIIKRNVRKSSGRGELLISLCYQSTTNTLTVVVLKARHLPKSDVSGLSDPYVKVNLYHAKKRISKKKTHVKKCTPNAVFNELFVFDIPCEGLEDISVEFLVLDSERGSRNEVIGQLVLGAAAEGTGGEHWKEICDYPRRQIAKWHVLCDG

Variants of: B1
Assay: ITC; parent: 1.2e+04 nM

Variant	Kd [µM]
chain 2 R157A	10
chain 2 R152A, chain 2 K153A	4
chain 2 R152A	4
chain 2 K153A	3
chain 2 K148A, chain 2 R149A, chain 2 R152A	19
chain 2 Q55A	3
chain 2 K148A, chain 2 R149A	9
